Data reported in EP4570823A1.

Target: Aβ oligomers, P05067
Assay: SPR (Biacore), 3F fixed on CM5 chip, Aβ oligomers in flow
Details: remark: other sources report otherwise

Aβ oligomers, P05067, sequence (P05067 672-713): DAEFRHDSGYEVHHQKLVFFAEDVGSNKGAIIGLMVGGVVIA

Kd: 0.847 nM
B1: antibody 3F (scFv)
scFv: MAEVQLLESGGGLVQPGGSLRLSCAASGFTFSSYAMSWVRQAPGKGLEWVSGISNLGLTTGYADSVKGRFTISRDNSKNTLYLQMNSLRAEDTAVYYCAKTTSRFDYWGQGTLVTVSSGGGGSGGGGSGGGGSTDIQMTQSPSSLSASVGDRVTITCRASQSISSYLNWYQQKPGKAPKLLIYKASYLQSGVPSRFSGSGSGTDFTLTISSLQPEDFATYYCQNSAVRPVTFGQGTKVEIKR
